These results are taken from US10377818B2, “Method of treating glioma” (The Board of Trustees of the Leland Stanford Junior …, priority 2015, dated 2019).

Holding throughout (type): cell-based, human
Assay [1] has as its system HGG patient-derived cell lines (pediatric cortical glioblastoma, DIPG, adult glioblastoma). Briefly: EdU proliferation index of various HGG patient-derived cell lines exposed to NLGN3. The following applies: 50 nM NLGN3 for 24 hours. The method, then:
A) Recombinant NLGN3 promotes pediatric high-grade glioma cell proliferation in a dose-dependent manner, plateauing at a low nanomolar concentration. 7-point dose curve plots proliferation index as measured by EdU^+/DAPI^+ staining at 24 hours following exposure of SU-pcGBM2 cells to NLGN3 at concentrations ranging from 0-100 nM. Shaded region indicates concentration present in active CM. B) Proliferation indices of various HGG patient-derived cell lines exposed to 50 nM NLGN3 for 24 hours. Data are shown as mean±SEM. ***P<0.001 by unpaired two-tailed Student's t-tests. C) Neurexin-1β, which binds to NLGN3 with high affinity, abrogates the mitogenic effect of active slice CM. […]
NLGN3 promotes proliferation in a broad range of HGG cultures. […] After 24-hour exposure, all cell lines were evaluated with the EdU assay to determine proliferation index (unpaired two-tailed Student's t-tests).
To assess the number of cells actively synthesizing new DNA in response to various conditions (see extended experimental procedures), SU-pcGBM2, SU-DIPGIV, SU-DIPGXIII, or SU-GBM035 cells were exposed to active CM or various recombinant proteins along with 10-μM EdU and fixed after 24 hours. EdU incorporation was determined using Click-iT EdU visualization (Invitrogen, Grand Island, N.Y.). […]

For assay [2], the system named is mTOR (phospho-4E-BP1 T37/46). Briefly: Western blot of phospho-4E-BP1 as reporter of mTOR activity. The following applies: 50 nM NLGN3 vs aCSF. The method, then:
Top panel, 4E-P1^T37/46; bottom panel, total 4E-BP1. B) Quantification of p4E-BP1T37/46/4E-BP1 ratio fold change after NLGN3 exposure normalized to aCSF control (unpaired two-tailed Student's t-test). C) 50 nM NLGN3-induced increase in SU-pcGBM2 proliferation index (EdU assay) is blocked by inhibition of PI3K by BKM120 (100 nM). […] All experiments performed in n=3 biological replicates. Data shown as mean±SEM. (See also FIG. 34, Table in FIG. 18.)
Endogenous protein levels were determined using Western blot analysis. Briefly, after various treatments, 400,000 SU-pcGBM2 cells were lysed and loaded onto SDS-PAGE gels. Proteins were separated with gel electrophoresis and transferred to a PVDF membrane. Proteins were then probed for various antibodies as described in extended experimental procedures.

In assay [3] the test system is NLGN3 mRNA in SU-DIPGXIII cells. Description: qPCR of NLGN3 gene expression in DIPG cells. The following applies: 50 nM recombinant NLGN3, 12 hour vs vehicle. The method, then: A) Signaling through the PI3K pathway increases in response to NLGN3. Representative Western blot illustrating increased phosphorylation of AKT in response to various concentrations of NLGN3 ranging from 0-50 nM. p-AKT is shown in top panel; total AKT is shown in the bottom panel. B) Quantification of the increased fold change of pAKT/AKT ratio in response to NLGN3 at various doses (oneway ANOVA, F=17.99, P<001; data shown as mean±SEM; *P<0.05, **P<0.01, ***P<0.001 by Tukey's post-hoc tests to further examine pairwise comparisons). Fold change is normalized to blank media (aCSF). (C) Fos mRNA expression increases after 1 hour exposure to […] 50 nM NLGN3 (data shown as mean±SEM; **P<0.01 by unpaired two-tailed Student's t-test). D) NLGN3 mRNA expression increases after 12 hour exposure to 50 nM NLGN3 vs. vehicle in SU-[…] cells. […]
After various cell treatments (described in extended experimental procedures), RNA was extracted from 500,000 SU-pcGBM2 or SU-[…] cells using TRIzol reagent. cDNA was generated using RT-PCR, and gene expression changes were further probed using quantitative PCR.
500,000 SU-pcGBM2 cells were exposed to either aCSF, 50 nM NLGN3 (Origene Technologies, Rockville), 500 nM BKM120 (SelleckChem, Houston, Tex.), 50 nM EGF (Shenandoah, Warwick, R.I.), or a combination of the above treatments. […] Differential expression was determined using the delta CT method. […]

B1: NLGN3: Recombinant full-length neuroligin-3 (Origene), tested as glioma mitogen (protein, listed as Mus musculus)
chain: MWLQPSLSLSPTPTVGRSLCLTLGFLSLVLRASTQAPAPTVNTHFGKLRGARVPLPSEILGPVDQYLGVPYAAPPIGEKRFLPPEPPPSWSGIRNATHFPPVCPQNIHTAVPEVMLPVWFTANLDIVATYIQEPNEDCLYLNVYVPTEDGSGAKKQGEDLADNDGDEDEDIRDSGAKPVMVYIHGGSYMEGTGNMIDGSVLASYGNVIVITLNYRVGVLGFLSTGDQAAKGNYGLLDQIQALRWVSENIAFFGGDPRRITVFGSGIGASCVSLLTLSHHSEGLFQRAIIQSGSALSSWAVNYQPVKYTSLLADKVGCNVLDTVDMVDCLRQKSAKELVEQDIQPARYHVAFGPVIDGDVIPDDPEILMEQGEFLNYDIMLGVNQGEGLKFVEGVVDPEDGVSGTDFDYSVSNFVDNLYGYPEGKDTLRETIKFMYTDWADRDNPETRRKTLVALFTDHQWVEPSVVTADLHARYGSPTYFYAFYHHCQSLMKPAWSDAAHGDEVPYVFGVPMVGPTDLFPCNFSKNDVMLSAVVMTYWTNFAKTGDPNKPVPQDTKFIHTKANRFEEVAWSKYNPRDQLYLHIGLKPRVRDHYRATKVAFWKHLVPHLYNLHDMFHYTSTTTKVPPPDTTHSSHITRRPNGKTWSTKRPAISPAYSNENAPGSWNGDQDAGPLLVENPRDYSTELSVTIAVGASLLFLNVLAFAALYYRKDKRRQEPLRQPSPQRGTGAPELGTAPEEELAALQLGPTHHECEAGPPHDTLRLTALPDYTLTLRRSPDDIPLMTPNTITMIPNSLVGLQTLHPYNTFAAGFNSTGLPHSHSTTRV
In the case of B1, in assay [1], the “effect on proliferation index” value is listed as “promoted a significant increase in the proliferation index”. Besides, in assay [2], the “phospho-4E-BP1 T37/46 relative to total 4E-BP1” value is recorded as “increase in phospho-4E-BP1^T37/46 relative to total 4E-BP1”. Also, the NLGN3 gene expression entry in assay [3] is reported as “increase in glioma cell NLGN3 gene expression”.
